Laboratory results taken from article doi:10.1101/2023.01.09.523197.

Molecular target: GlnR;RNAP holoenzyme (Mycobacterium …, UniProt O53830;P9WGZ1;P9WGY9;P9WGY7;P9WGY5;P9WGI1 1-255;1-347;1-1178;1-1316;1-110;1-528, |)
Assay: cryo-EM

B1: amtB scaffold (dsDNA)
DNA 1: CTTCGTCACGGCGGCGAAACAACGAGGGGCTTCCACCGAAACCGCGCTGCGTTATAATGGGAGCTGTCACGGATGCA
DNA 2: TGCATCCGTGAGTCGAGGGTAATAAACGCAGCGCGGTTTCGGTGGAAGCCCCTCGTTGTTTCGCCGCCGTGACGAAG
  binding result: binds
